Source: patent publication US8076085

Assays:
Assay in all cases: inhibition ELISA: serum preincubated with soluble peptide, then preS1 (94-117) coated plate
[1] = target: IgG anti-preS1 (94-117) in serum from a HBeAg+ chronic patient (FIG. 7)
[2] = target: IgG anti-preS1 (94-117) in serum of HBeAg+ patient with acute resolving HB-infection (FIG. 6b)
[3] = target: IgG anti-preS1 (94-117) in serum of HBeAg+ patient with acute resolving HB-infection (FIG. 6a)
[4] = target: IgG anti-preS1 (94-117) in serum of one HBeAg+ patient with chronic HBV-infection who later spontaneously seroconverted to anti-HBe (FIG. 5a)
[5] = target: IgG anti-preS1 (94-117) in serum of HBeAg+ patient with acute resolving HB-infection (FIG. 5b)

Measured: percent inhibition

PASTNRQSGRQPTPISPPLRDSHP [preS1#94-117 peptide (HBV subtypes adw, adw2 and two of three adr subtypes)]
100%: all assays above
